Target: T1, unkl_human UNKL (UniProt Q9H9P5)
T1 sequence: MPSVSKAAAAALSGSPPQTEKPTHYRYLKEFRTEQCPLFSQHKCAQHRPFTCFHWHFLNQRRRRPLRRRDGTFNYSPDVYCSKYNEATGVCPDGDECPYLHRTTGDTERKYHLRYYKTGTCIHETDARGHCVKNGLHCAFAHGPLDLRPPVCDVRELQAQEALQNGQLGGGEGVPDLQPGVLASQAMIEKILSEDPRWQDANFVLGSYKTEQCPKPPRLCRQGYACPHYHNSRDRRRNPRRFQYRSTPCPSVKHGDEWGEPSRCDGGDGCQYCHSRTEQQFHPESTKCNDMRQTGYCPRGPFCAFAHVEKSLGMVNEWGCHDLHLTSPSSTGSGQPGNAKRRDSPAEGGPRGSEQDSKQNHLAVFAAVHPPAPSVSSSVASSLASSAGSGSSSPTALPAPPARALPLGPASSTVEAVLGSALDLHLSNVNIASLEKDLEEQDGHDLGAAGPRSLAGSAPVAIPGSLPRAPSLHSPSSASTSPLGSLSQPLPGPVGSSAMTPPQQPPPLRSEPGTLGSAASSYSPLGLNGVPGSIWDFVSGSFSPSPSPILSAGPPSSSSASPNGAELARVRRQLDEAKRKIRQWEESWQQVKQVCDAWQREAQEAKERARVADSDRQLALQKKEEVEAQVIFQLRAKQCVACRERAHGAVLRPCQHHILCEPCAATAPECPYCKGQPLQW

Substance: Ras-related C3 botulinum toxin substrate 1 (Homo sapiens) (from UniProt P63000) Q61L
- effect of a mutation on the interaction: increasing interaction
